For one series, the target named is SOX-2 (Caenorhabditis elegans, UniProt Q21305 1-283). The series can be described thus: EMSA; 20 mM Tris-HCl pH 8.0, 100 mM NaCl, 100 ug/mL BSA, 1 mM EDTA, 1 mM DTT, 0.1% NP-40; 20 min on ice (supershift 30 min at room temperature), 200 ng Cy5 probe; 6%. The following applies: protein: recombinant; tags: N-terminal 6xHis, C-terminal HA (pSJ6094); label: Cy5 on forward strand; blunt. In general terms: In EMSA bound probe runs differently from free probe, usually more slowly.

The next series has as its target T1, HMG-POP-1 (Caenorhabditis elegans, UniProt Q10666 181-281).
T1 sequence: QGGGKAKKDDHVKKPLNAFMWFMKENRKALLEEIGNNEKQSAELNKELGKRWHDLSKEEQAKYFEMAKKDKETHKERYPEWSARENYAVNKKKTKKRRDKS
The series is described as above. Conditions: protein: recombinant; tags: N-terminal 6xHis (pSJ769); label: Cy5 on forward strand; blunt.

SOX-2, sequence (Q21305 whole entry): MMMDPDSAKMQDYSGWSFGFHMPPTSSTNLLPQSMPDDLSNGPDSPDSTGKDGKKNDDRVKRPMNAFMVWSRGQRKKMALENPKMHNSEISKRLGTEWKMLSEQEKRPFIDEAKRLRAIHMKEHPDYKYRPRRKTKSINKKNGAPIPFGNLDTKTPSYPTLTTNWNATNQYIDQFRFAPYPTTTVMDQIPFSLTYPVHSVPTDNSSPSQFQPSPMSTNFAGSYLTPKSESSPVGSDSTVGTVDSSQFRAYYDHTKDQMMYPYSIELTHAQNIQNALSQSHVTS

B1: lim-6 intron 4 probe 1 (dsDNA)
DNA 1: TACGATTTGCAAACAACAAACATTCCAGACAGAT
DNA 2: ATCTGTCTGGAATGTTTGTTGTTTGCAAATCGTA
For the molecule B1, the binding result with SOX-2 and with HMG-POP-1 was “binds” each time.

B2: lim-6 intron 4 probe 2 (dsDNA)
DNA 1: CTGCTACCGTAGTGCTTTGTTGATTTAACACACA
DNA 2: TGTGTGTTAAATCAACAAAGCACTACGGTAGCAG
Regarding B2, the binding result with SOX-2 and with HMG-POP-1 was “binds” in each case.

Source of the values: PMC9513805, “A natural transdifferentiation event involving mitosis is empowered by integrating signaling inputs with conserved plasticity factors”.
